Columns and labels:
Assay in all cases: ITC; ITC at 30 C in TBS with 1 mM TCEP (pH not stated); 8 uM (6-10) protein in cell, 40 uM (15-50) nucleic acid in syringe; one-site model
Pr55Gag [1] = molecular target: T1, Pr55Gag (HIV-1, UniProt P12493 1-500); conditions: protein: recombinant, tags: C-terminal His
Pr50GagΔp6 = Pr50GagΔp6 (HIV-1, UniProt P12493 1-448); conditions: protein: recombinant, tags: C-terminal His
p15NC-SP2-p6 = p15NC-SP2-p6 (HIV-1, UniProt P12493 378-500); conditions: protein: recombinant, tags: C-terminal His
p7NC = p7NC (HIV-1, UniProt P12493 378-432); conditions: protein: recombinant, tags: C-terminal His
Pr55Gag [2] = molecular target: T1, Pr55Gag; conditions: protein: recombinant; tags: C-terminal His
Pr55Gag-TEV = Pr55Gag-TEV (HIV-1, UniProt P12493 1-500); conditions: protein: recombinant; tags: His removed by TEV protease; TEV site remnant at C-term
Pr50GagΔp6-TEV = Pr50GagΔp6-TEV (HIV-1, UniProt P12493 1-448); conditions: protein: recombinant; tags: His removed by TEV protease; TEV site remnant at C-term

Q: How did the Kd (Pr55Gag [1]; hairpin) turn out when GGACUAGCGGAGGCUAGUCC (structured_RNA) [Psi SL3 RNA (20mer)] was run?
A: 81 ± 25 nM

Q: What about the Kd (Pr50GagΔp6; hairpin) of the same binder?
A: 98 ± 3 nM

Q: What about the Kd (p15NC-SP2-p6; hairpin) of the same binder?
A: 57 ± 11 nM

Q: And the Kd (p7NC; hairpin)?
A: 48 ± 23 nM

Q: With GAGAAGAGAAGAGAAGAGAA (ssRNA) [4x 5'-GAGAA-3' (A-containing)] as the binder, how does the binding signal (Pr55Gag [2]) read?
A: ~3 fold stronger Kd than GU-containing RNA (average over sets)

Q: Which results are given for GAUGGGAUGGGAUGGGAUGG (ssRNA) [4x 5'-GAUGG-3' (GU-containing)]?
A: binding result (Pr55Gag-TEV): binds; binding result (Pr55Gag [1]): binds; binding result (Pr50GagΔp6-TEV): binds; binding result (Pr50GagΔp6): binds; binding result (p15NC-SP2-p6): binds; binding result (p7NC): binds

Q: Does CUUAGAAAUAGGGCAGCAUAGAACAAAAAUAGAGGAA (ssRNA) [HIVNL4.3RNA2671-2707] bind (Pr55Gag-TEV)?
A: binds

Q: Does CUUAGAAAUAGGGCAGCAUAGAACAAAAAUAGAGGAA (ssRNA) [HIVNL4.3RNA2671-2707] bind (Pr50GagΔp6-TEV)?
A: binds

Source: publication PMC5336307, “The thermodynamics of Pr55Gag-RNA interaction regulate the assembly of HIV”
